Measured values from PMC9482650, “Quantitative fragmentomics allow affinity mapping of interactomes” (Nature Communications, 2022).

Experiments:
Experiment in all cases: holdup assay
Set-up in all cases: key: below the threshold = too weak to quantify, mostly under pKd 3.1 to 4
APBA3_2, O96018 = biological target: T1, APBA3_2, O96018
T1 sequence (O96018 480-570, limits assumed, looked up): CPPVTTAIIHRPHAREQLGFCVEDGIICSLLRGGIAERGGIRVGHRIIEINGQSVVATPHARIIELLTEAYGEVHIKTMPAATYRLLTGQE

DVL2, O14641 = biological target: DVL2, O14641
GIPC1, O14908 = biological target: T2, GIPC1, O14908
T2 sequence (O14908 128-223, limits assumed, looked up): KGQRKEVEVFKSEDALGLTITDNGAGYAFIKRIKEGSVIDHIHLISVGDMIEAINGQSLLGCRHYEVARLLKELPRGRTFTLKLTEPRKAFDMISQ

GRIP1_1, Q9Y3R0 = biological target: T3, GRIP1_1, Q9Y3R0
T3 sequence (Q9Y3R0 48-146, limits assumed, looked up): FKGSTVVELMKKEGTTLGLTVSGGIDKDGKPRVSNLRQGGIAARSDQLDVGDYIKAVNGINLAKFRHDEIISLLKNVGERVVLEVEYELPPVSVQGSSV

LMO7, Q8WWI1 = biological target: LMO7, Q8WWI1
MPDZ_13, O75970 = biological target: T4, MPDZ_13, O75970
T4 sequence (O75970 1982-2070, limits assumed, looked up): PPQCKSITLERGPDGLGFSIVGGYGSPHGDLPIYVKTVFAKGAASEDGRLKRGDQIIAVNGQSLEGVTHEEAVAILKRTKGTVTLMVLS

MPDZ_2, O75970 = biological target: T5, MPDZ_2, O75970
T5 sequence (O75970 252-347, limits assumed, looked up): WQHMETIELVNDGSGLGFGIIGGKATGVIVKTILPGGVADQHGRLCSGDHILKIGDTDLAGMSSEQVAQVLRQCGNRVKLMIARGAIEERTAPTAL

MPP1, Q00013 = biological target: T6, MPP1, Q00013
T6 sequence (Q00013 66-162, limits assumed, looked up): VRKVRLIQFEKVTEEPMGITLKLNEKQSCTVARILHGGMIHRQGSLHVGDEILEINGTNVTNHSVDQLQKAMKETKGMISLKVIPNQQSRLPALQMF

NHERF1_1, O14745 = biological target: T7, NHERF1_1, O14745
T7 sequence (O14745 9-104, limits assumed, looked up): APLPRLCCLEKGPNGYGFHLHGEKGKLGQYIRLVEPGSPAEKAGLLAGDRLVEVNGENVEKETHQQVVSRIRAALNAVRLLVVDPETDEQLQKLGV

PARD3_1, Q8TEW0 = biological target: PARD3_1, Q8TEW0
PDZD2_3, O15018 = biological target: T8, PDZD2_3, O15018
T8 sequence (O15018 581-682, limits assumed, looked up): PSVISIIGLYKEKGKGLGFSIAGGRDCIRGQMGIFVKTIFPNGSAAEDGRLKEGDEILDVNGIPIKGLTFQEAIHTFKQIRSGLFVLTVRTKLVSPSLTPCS

PDZD2_5, O15018 = biological target: T9, PDZD2_5, O15018
T9 sequence (O15018 2617-2716, limits assumed, looked up): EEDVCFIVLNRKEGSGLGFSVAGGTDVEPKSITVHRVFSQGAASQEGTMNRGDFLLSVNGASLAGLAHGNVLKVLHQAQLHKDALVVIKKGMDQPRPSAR

PDZD7_2, Q9H5P4 = biological target: T10, PDZD7_2, Q9H5P4
T10 sequence (Q9H5P4 205-303, limits assumed, looked up): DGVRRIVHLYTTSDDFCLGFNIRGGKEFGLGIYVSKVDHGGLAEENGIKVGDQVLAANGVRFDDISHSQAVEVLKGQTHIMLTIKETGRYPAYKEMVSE

PDZD9, Q8IXQ8 = biological target: PDZD9, Q8IXQ8
PDZRN3_2, Q9UPQ7 = biological target: T11, PDZRN3_2, Q9UPQ7
T11 sequence (Q9UPQ7 414-513, limits assumed, looked up): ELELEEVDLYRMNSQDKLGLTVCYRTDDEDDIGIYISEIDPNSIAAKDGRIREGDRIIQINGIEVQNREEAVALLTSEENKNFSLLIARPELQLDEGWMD

PDZRN4_2, Q6ZMN7 = biological target: PDZRN4_2, Q6ZMN7
PREX1_1, Q8TCU6 = biological target: PREX1_1, Q8TCU6
SHROOM3, Q8TF72 = biological target: T12, SHROOM3, Q8TF72
T12 sequence (Q8TF72 20-120, limits assumed, looked up): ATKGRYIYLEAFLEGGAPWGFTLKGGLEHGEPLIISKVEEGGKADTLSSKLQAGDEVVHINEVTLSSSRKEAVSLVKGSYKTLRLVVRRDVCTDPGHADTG

SHROOM4, Q9ULL8 = biological target: T13, SHROOM4, Q9ULL8
T13 sequence (Q9ULL8 5-102, limits assumed, looked up): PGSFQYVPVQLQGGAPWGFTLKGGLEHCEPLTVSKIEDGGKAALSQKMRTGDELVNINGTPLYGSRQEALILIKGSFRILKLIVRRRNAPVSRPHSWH

TJP1_1, Q07157 = biological target: TJP1_1, Q07157
TJP3_2, O95049 = biological target: T14, TJP3_2, O95049
T14 sequence (O95049 190-282, limits assumed, looked up): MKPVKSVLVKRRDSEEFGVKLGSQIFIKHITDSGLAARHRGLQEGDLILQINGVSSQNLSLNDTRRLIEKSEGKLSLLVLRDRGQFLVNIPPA

USH1C_3, Q9Y6N9 = biological target: T15, USH1C_3, Q9Y6N9
T15 sequence (Q9Y6N9 447-547, limits assumed, looked up): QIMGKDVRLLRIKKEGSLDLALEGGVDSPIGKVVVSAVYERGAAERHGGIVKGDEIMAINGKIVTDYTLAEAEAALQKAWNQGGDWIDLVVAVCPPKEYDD

[1] = plain residues with an end cap or a label only (N-terminal biotin on a linker: ttds)
[2] = plain residues with an end cap or a label only (N-terminal biotin on a linker: none)

Chain of PDZD9, Q8IXQ8 (Q8IXQ8 23-120): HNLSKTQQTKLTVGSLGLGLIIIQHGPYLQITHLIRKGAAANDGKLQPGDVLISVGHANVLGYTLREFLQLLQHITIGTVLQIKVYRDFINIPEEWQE
Chain of PARD3_1, Q8TEW0 (Q8TEW0 264-372): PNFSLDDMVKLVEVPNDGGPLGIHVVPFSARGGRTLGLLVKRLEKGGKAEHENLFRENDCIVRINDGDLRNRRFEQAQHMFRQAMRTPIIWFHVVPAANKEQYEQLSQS
Chain of PDZRN4_2, Q6ZMN7 (Q6ZMN7 389-498): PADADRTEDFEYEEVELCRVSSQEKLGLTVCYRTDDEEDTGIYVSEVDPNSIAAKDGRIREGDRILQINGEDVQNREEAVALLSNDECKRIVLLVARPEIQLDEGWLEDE
Chain of TJP1_1, Q07157 (Q07157 18-120): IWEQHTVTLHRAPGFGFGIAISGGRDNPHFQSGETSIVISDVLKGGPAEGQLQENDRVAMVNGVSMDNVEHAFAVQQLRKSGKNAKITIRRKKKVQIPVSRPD
Chain of PREX1_1, Q8TCU6 (Q8TCU6 608-718): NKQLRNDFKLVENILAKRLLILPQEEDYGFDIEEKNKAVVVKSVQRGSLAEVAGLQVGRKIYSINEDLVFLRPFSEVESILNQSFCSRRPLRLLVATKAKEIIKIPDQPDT
Chain of LMO7, Q8WWI1 (Q8WWI1 1037-1138): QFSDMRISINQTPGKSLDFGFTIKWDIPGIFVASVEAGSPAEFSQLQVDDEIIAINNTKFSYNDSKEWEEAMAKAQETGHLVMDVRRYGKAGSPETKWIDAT
Chain of DVL2, O14641 (O14641 260-359): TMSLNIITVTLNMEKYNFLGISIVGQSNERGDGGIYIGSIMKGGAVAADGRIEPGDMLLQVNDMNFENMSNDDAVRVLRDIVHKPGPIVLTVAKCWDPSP

B1: ARHGEF16, Q5VV41 (peptide)
chain: MERLRVETDV
pKd (APBA3_2, O96018; [1]): below the threshold | pKd (DVL2, O14641; [1]): below the threshold | pKd (GIPC1, O14908; [1]): 4.71 | pKd (GRIP1_1, Q9Y3R0; [1]): below the threshold | pKd (LMO7, Q8WWI1; [1]): below the threshold | pKd (MPDZ_13, O75970; [1]): below the threshold | pKd (MPDZ_2, O75970; [1]): below the threshold | pKd (MPP1, Q00013; [1]): 4.56 | pKd (NHERF1_1, O14745; [1]): below the threshold | pKd (PARD3_1, Q8TEW0; [1]): below the threshold | pKd (PDZD2_3, O15018; [1]): below the threshold | pKd (PDZD2_5, O15018; [1]): below the threshold | pKd (PDZD7_2, Q9H5P4; [1]): 4.24 | pKd (PDZD9, Q8IXQ8; [1]): below the threshold | pKd (PDZRN3_2, Q9UPQ7; [1]): below the threshold | pKd (PDZRN4_2, Q6ZMN7; [1]): below the threshold | pKd (PREX1_1, Q8TCU6; [1]): below the threshold | pKd (SHROOM3, Q8TF72; [1]): below the threshold | pKd (SHROOM4, Q9ULL8; [1]): 4.06 | pKd (TJP1_1, Q07157; [1]): below the threshold | pKd (TJP3_2, O95049; [1]): below the threshold | pKd (USH1C_3, Q9Y6N9; [1]): below the threshold

B2: PBK, Q96KB5 (peptide)
chain: HIVEALETDV
pKd (APBA3_2, O96018; [1]): below the threshold | pKd (DVL2, O14641; [1]): 5.15 | pKd (GIPC1, O14908; [1]): 5.37 | pKd (GRIP1_1, Q9Y3R0; [1]): below the threshold | pKd (LMO7, Q8WWI1; [1]): below the threshold | pKd (MPDZ_13, O75970; [1]): below the threshold | pKd (MPDZ_2, O75970; [1]): below the threshold | pKd (MPP1, Q00013; [1]): below the threshold | pKd (NHERF1_1, O14745; [1]): below the threshold | pKd (PARD3_1, Q8TEW0; [1]): below the threshold | pKd (PDZD2_3, O15018; [1]): below the threshold | pKd (PDZD2_5, O15018; [1]): below the threshold | pKd (PDZD7_2, Q9H5P4; [1]): below the threshold | pKd (PDZD9, Q8IXQ8; [1]): below the threshold | pKd (PDZRN3_2, Q9UPQ7; [1]): below the threshold | pKd (PDZRN4_2, Q6ZMN7; [1]): below the threshold | pKd (PREX1_1, Q8TCU6; [1]): below the threshold | pKd (SHROOM3, Q8TF72; [1]): below the threshold | pKd (SHROOM4, Q9ULL8; [1]): below the threshold | pKd (TJP1_1, Q07157; [1]): below the threshold | pKd (TJP3_2, O95049; [1]): below the threshold | pKd (USH1C_3, Q9Y6N9; [1]): below the threshold

B3: MERS-E, K9N5R3 (peptide)
chain: DSKPPLPPDEWV
pKd (APBA3_2, O96018; [2]): below the threshold | pKd (DVL2, O14641; [2]): below the threshold | pKd (GIPC1, O14908; [2]): below the threshold | pKd (GRIP1_1, Q9Y3R0; [2]): below the threshold | pKd (LMO7, Q8WWI1; [2]): below the threshold | pKd (MPDZ_13, O75970; [2]): below the threshold | pKd (MPDZ_2, O75970; [2]): below the threshold | pKd (MPP1, Q00013; [2]): below the threshold | pKd (NHERF1_1, O14745; [2]): below the threshold | pKd (PARD3_1, Q8TEW0; [2]): below the threshold | pKd (PDZD2_3, O15018; [2]): 3.89 | pKd (PDZD2_5, O15018; [2]): below the threshold | pKd (PDZD7_2, Q9H5P4; [2]): below the threshold | pKd (PDZD9, Q8IXQ8; [2]): below the threshold | pKd (PDZRN3_2, Q9UPQ7; [2]): below the threshold | pKd (PDZRN4_2, Q6ZMN7; [2]): 3.75 | pKd (PREX1_1, Q8TCU6; [2]): below the threshold | pKd (SHROOM3, Q8TF72; [2]): below the threshold | pKd (SHROOM4, Q9ULL8; [2]): below the threshold | pKd (TJP1_1, Q07157; [2]): below the threshold | pKd (TJP3_2, O95049; [2]): below the threshold | pKd (USH1C_3, Q9Y6N9; [2]): below the threshold
